# Results reported in the supplement of paper PMC9170038.
# System: MS2 coat protein
# Assay: apparent KD of MS2 coat protein; designed switch direction (-1 OFF switch, 1 ON switch): -1; higher = weaker reporter binding
# Procedure, shortened: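 RNA switches sharing common flanks were transcribed by stalled E. coli RNA polymerase on Illumina chips. A doubling series of SNAP-549-labelled MS2 coat protein, from 0.7 or 1.5 nM to 3 µM, was applied in Tris-HCl pH 7.5 buffer with KCl, MgCl2, BSA, DTT, tRNA and Tween-20. Each step lasted 0.8–1.5 h at the bottom of the series and 10–20 min at the top. Normalised cluster fluorescence was curve-fitted, giving apparent KD as the per-design median over clusters.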
# [1] = Eterna round: R95, input ligand: microRNA oligo, concentration not stated
# [2] = Eterna round: R95, input ligand: FMN 200 uM
# [3] = Eterna round: R95, input ligand: none
# [4] = input ligand: microRNA oligo, concentration not stated
Sequence,apparent KD of MS2 coat protein (input ligand: FMN 200 uM) [nM],apparent KD of MS2 coat protein (input ligand: none) [nM],apparent KD of MS2 coat protein [1] [nM],apparent KD of MS2 coat protein [2] [nM],apparent KD of MS2 coat protein [3] [nM],apparent KD of MS2 coat protein [4] [nM]
"AAUCUUCUAGGAUAUAUAUGGUAGCGGGAGAACCCAGUCACACAUGAGGAUCACCCAUGUAGAAGGAGAAUAGG [Eternabot (L1) Solution 87] (Eterna round: R97, puzzle: Exclusion 2)",107,99.7,–,–,–,–
AUUGAUGUUGAGGAUAUGCUUUUAUUUAUUCUUGCAGAAGGCGAUACAUGAGGAUCACCCAUGUUCAUGGAAGU [JR_E6_Sub091] (puzzle: Exclusion 6),–,–,30.7,–,–,–
"GAAUAGUGAGGAUAUACUUGCAGUGUACCUCGGGUGAUCUCACUUGAGGAUCACCCAAGUAGAAGGCGCGAGGG [EX2 #22] (Eterna round: R97, puzzle: Exclusion 2)",20.8,9.03,–,–,–,–
"CAGCUGUCAGGAUAUCGUGCAUACAACGAAAGUUCUAUGUGCGAGAAGGGACAUGAGGAUCACCCAUGUAAACG [Omei Ex4 A26] (Eterna round: R97, puzzle: Exclusion 4)",101,57.4,–,–,–,–
UCAUACGGUGAGGAUAUCUCCGCUAAAGUGUGUAGAGAAGGCGCUACAUGAGGAUCACCCAUGUUUAUGGGCAG [Ex-6 Malc#12] (puzzle: Exclusion 6),–,–,347,52.9,443,–
"UCUUCACAUGAGGAUCACCCAUGUGAGGAUAUGGAUUCGCUGGCCGUAGCCAGUGGAUCCAGAAGGCGCGUGAU [JL-ex1-4.23] (Eterna round: R97, puzzle: Exclusion 1)",65,74,–,–,–,–
GCCAGAGCAGGAUAUUCAGUAUCACACAUGAGGAUCACCCAUGUCCAGCGAAAGCUGGAGGGAGAAGGGCUCUGGC [Fiskers Ex 5 - 13] (puzzle: Exclusion 5),–,–,108,40.8,298,–
GAGAAGGUAGGAUAUACGAAGAAAAAGGGUAGAAUAAUAACACAUGAGGAUCACCCAUGUAGAAGGACCAAGAG [Mat - Exclusion 2 - Mod of my Tesla design - D19] (puzzle: Exclusion 2),–,–,16.7,44.3,20.4,–
"GCGGGAAAAGGAUAUGAGAGGUAAUACAUGAGGAUCACCCAUGUGAUAGACUCUGUGCUUUUAGAAGGUUUAUGUC [Eternabot (L1) Solution 19] (Eterna round: R97, puzzle: Exclusion 5)",14.3,15.3,–,–,–,–
"CUGACGGCAGGAUAUACAUGAGGAUCACCCAUGUAAAUUUUUCGUUUAACUUGAAUGUGUAGAAGGGCCCAACC [Ex3 #79] (Eterna round: R97, puzzle: Exclusion 3)",19.6,21.5,–,–,–,–
UCGGCGCGAGGAUAUACGUUUGCUUUUUUUUGUCUUUGUGUACAUGAGGAUCACCCAUGUAGAAGGCGCGCCGC [Apr-15 SS2-22] (puzzle: Exclusion 2),–,–,18.5,–,–,–
"ACAUGUAAUGUAGGAUAUUUUACACAUGAGGAUCACCCAUGUGACCGGAGGCUUUACUAUGAGUAAAAGAAGGGUAUGUACAUG [Ex NG2 #61] (Eterna round: R96, puzzle: Exclusion NG 2)",68.5,45.8,–,–,–,33.1
AAGAAACAUGAGGAUCACCCAUGUGAGGAUAUGAUCAAGAAAAGAAAAGAAAGAAGAAUCAGAAGGCACAAAGG [salish99-ex1_r3_044] (puzzle: Exclusion 1),–,–,176,295,342,–
"GCAGGUCAAGGAUAUACAUGAGGAUCACCCAUGUAGAUCAACCAGCGAUAGCUGGAAUGUAGAAGGUGACCUGC [E3/5-C2] (Eterna round: R97, puzzle: Exclusion 3)",67.6,23.7,–,–,–,–
"CUAAAUCAUGUAGGAUAUGCGUAGCGAAGCUAUGCAGAAGGACAUGAGGAUCACCCAUGUUCUUCCGUCUGCGUACAGACGGAA [Mat - Exclusion NG 1 - Mod of JL - D29] (Eterna round: R96, puzzle: Exclusion NG 1)",337,38.2,–,–,–,29.1
AAUUCACAUGAGGAUCACCCAUGUCAGGAUAUGGUUUCGCGGGUUUCGGUGCGUGAGGCCAGAAGGGACAGCUA (puzzle: Exclusion 1),–,–,49.2,–,–,–

Sequence,apparent KD of MS2 coat protein (input ligand: FMN 200 uM) [nM],apparent KD of MS2 coat protein (input ligand: none) [nM],apparent KD of MS2 coat protein [1] [nM],apparent KD of MS2 coat protein [2] [nM],apparent KD of MS2 coat protein [3] [nM],apparent KD of MS2 coat protein [4] [nM]
"UAUUUACAUGAGGAUCACCCAUGUCAGGAUAUGUUUCUAUCGUCGAAAGACGAUAGUUGCAGAAGGGACAAUAU [LRO-Excl01-25 mod derived from EliFisker 4.24] (Eterna round: R97, puzzle: Exclusion 1)",94.1,48.5,–,–,–,–
"UAAACAAGCUUAAGAUCCUACAUGAGGAUCACCCAUGUGCUCGUCUUGUAACGUACUGUGACGAAAGUCACGGUACG [JL TOV1 3.09] (Eterna round: R97, puzzle: Sensor, turn-off variant 1)",185,228,–,–,–,–
"CUGUACUGAGGAUAUACAUGAGGAUCACCCAUGUGCUCCAGCUAGGAAACUAGCAAAAGUAGAAGGCAGUACAG [Mat - Exclusion 3 - Eli Mod - D60] (Eterna round: R97, puzzle: Exclusion 3)",620,62.5,–,–,–,–
GAGUGACAUGAGGAUCACCCAUGUGAGGAUAUCGGACGGACCUAGUUAACUUCCGCCGCGAGAAGGCACAUCGG [Exclusion 1 V23] (puzzle: Exclusion 1),–,–,70.2,–,–,–
"CAACACUGAGGAUAUGCUCGGCCGGUUCUCCGUGCCCAAGUACUUGAGGAUCACCCAAGUAGAAGGCAGUAAAA [Diedar] (Eterna round: R97, puzzle: Exclusion 2)",18.1,16,–,–,–,–
"UGCAAGCUUUAAAGAUCCUACAUGAGGAUCACCCAUGUGCUCGUCUUAUAACGUACUGUGACGAAAGUCACGGUACG [JL TOV1 3.96] (Eterna round: R97, puzzle: Sensor, turn-off variant 1)",324,315,–,–,–,–
"CUGAGUCUAGGAUAUACAUGAGGAUCACCCAUGUAAAGUAGCUUGCGUACAGGCAGAUGUAGAAGGAGAUUCGG [Mod of JL 10 - Jieux - Exclusion 3] (Eterna round: R97, puzzle: Exclusion 3)",33.2,24.6,–,–,–,–
"AUCCGGCAUGUAGGAUAUGGAUCCGAUUAGGAUCCAGAAGGACAUGAGGAUCACCCAUGUACAUGUAAACAGUCAUCACCGGAC [salish99_ExNG1_r04_201] (Eterna round: R96, puzzle: Exclusion NG 1)",462,67.3,–,–,–,50.2
"AUUGUUUAUGUAGGAUAUGCCUGGCGUGCCUUUGCAGAAGGACAUGAGGAUCACCCAUGUAUUGCGGUCUGCGUUCAGAUCGCA [salish99_ExNG1_r4_032] (Eterna round: R96, puzzle: Exclusion NG 1)",–,–,–,–,–,25
"CCUUGACAUGAGGAUCACCCAUGUUAGGAUAUAACAUUUGACACUACAGUAUGAAGUGUUAGAAGGGAUAUGGG [-22.5, -21 kcal, A 32%] (Eterna round: R97, puzzle: Exclusion 1)",39.4,29.8,–,–,–,–
"AGAUGCUCAAGUCGACAUGAGGAUCACCCAUGUACAGUUAAUGAGGAUAUCCGAGAUAAAUAAUAGGAGAAGGUAUGAUCAUGA [Ex NG3 #5] (Eterna round: R96, puzzle: Exclusion NG 3)",86.7,59.5,–,–,–,175
"UGUACGAUGCGUGCUGACAUGCGUCGUGCAGCAGGUGUUACAUGAGGAUCACCCAUGUCCUCAUUUGCUCGUCUUAU [SL-sv3-2.08 JL mod] (puzzle: Sensor v3, turn-off variant 2)",–,–,250,250,337,–
"UCUUUCAUUGUGAGGAUAUGCCCAAAUAAAAGCGGGCAGAAGGCACAUGAGGAUCACCCAUGUCCUGCGGUUAU [salish99_bmx4_r4_150] (Eterna round: R97, puzzle: Brourd's mod of Exclusion 4)",357,56.9,–,–,–,–
AAGUAGGCAGGAUAUACAUGAGGAUCACCCAUGUGCCUAUACAAGGUAAUCUUGGGAGGUAGAAGGGCCUACAA [ChP 13.04.2015 #3] (puzzle: Exclusion 3),–,–,33,–,–,–
"CGAGGUAGAGGAUAUACGUGGAUGUAAAUUCAUGUUAAUCUACAUGAGGAUCACCCAUGUAGAAGGCUAUAGCG [JR_Ex2_Sub076] (Eterna round: R97, puzzle: Exclusion 2)",27.8,30.6,–,–,–,–
"UUUAUAAUUUCAAUCUUCGCCAACAAACUUACGCUGGCCACAUGAGGAUCACCCAUGUUUUUUGUUCGUUUUAUUCU [Veorenxere] (Eterna round: R96, puzzle: Sensor v3, turn-off variant 2)",25,27.1,–,–,–,62.2
